Reference: paper PMC9482650, “Quantitative fragmentomics allow affinity mapping of interactomes” (Nature Communications, 2022)

T1: DLG3_3, Q92796
T1 sequence (Q92796 374-475, limits assumed, looked up): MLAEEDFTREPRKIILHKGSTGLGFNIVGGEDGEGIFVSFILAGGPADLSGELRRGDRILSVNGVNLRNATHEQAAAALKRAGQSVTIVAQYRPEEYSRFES

T2: MPP7, Q5T2T1
T2 sequence (Q5T2T1 134-230, limits assumed, looked up): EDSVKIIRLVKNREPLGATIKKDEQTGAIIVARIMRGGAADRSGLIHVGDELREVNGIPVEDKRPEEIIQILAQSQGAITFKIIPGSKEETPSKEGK

T3: LIN7A, O14910
T3 sequence (O14910 103-200, limits assumed, looked up): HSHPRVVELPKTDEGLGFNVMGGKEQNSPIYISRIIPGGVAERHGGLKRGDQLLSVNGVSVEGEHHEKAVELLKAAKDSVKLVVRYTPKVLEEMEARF

T4: APBA1_1, Q02410
T4 sequence (Q02410 651-752, limits assumed, looked up): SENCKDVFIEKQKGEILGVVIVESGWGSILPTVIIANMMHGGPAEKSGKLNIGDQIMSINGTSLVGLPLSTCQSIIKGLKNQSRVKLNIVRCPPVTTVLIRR

T5: SNTG1, Q9NSN8
T5 sequence (Q9NSN8 52-150, limits assumed, looked up): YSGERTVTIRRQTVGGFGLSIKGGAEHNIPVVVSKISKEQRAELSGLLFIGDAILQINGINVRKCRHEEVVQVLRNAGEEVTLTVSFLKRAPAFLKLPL

T6: MPP6, Q9NZW5
T6 sequence (Q9NZW5 125-219, limits assumed, looked up): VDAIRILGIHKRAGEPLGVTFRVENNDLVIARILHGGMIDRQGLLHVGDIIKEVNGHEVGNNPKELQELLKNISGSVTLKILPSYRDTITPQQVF

T7: GRIP1_4, Q9Y3R0
T7 sequence (Q9Y3R0 467-571, limits assumed, looked up): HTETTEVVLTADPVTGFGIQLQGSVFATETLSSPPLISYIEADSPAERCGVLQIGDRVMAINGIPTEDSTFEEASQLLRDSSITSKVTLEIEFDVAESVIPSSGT

T8: RAPGEF6, Q8TEU7
T8 sequence (Q8TEU7 525-625, limits assumed, looked up): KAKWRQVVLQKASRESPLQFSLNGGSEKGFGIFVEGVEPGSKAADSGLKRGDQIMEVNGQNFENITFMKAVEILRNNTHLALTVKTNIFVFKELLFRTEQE


How the values were obtained:
Experiment in all cases: holdup assay
Design in all cases: key: below the threshold = too weak to quantify, mostly under pKd 3.1 to 4
Conditions in all cases: plain residues with an end cap or a label only (N-terminal biotin on a linker: ado-ado)
[1] = target: HTRA1, Q92743
Sequence of HTRA1, Q92743 (Q92743 360-477): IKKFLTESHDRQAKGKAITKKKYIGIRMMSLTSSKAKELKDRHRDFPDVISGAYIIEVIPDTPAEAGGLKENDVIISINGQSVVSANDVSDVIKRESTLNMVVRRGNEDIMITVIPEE

[2] = target: IL16_3, Q14005
Sequence of IL16_3, Q14005 (Q14005 1107-1207): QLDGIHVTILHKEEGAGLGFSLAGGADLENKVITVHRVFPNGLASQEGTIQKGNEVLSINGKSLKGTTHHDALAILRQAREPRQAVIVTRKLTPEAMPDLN

[3] = target: CASK, O14936
Sequence of CASK, O14936 (O14936 487-570): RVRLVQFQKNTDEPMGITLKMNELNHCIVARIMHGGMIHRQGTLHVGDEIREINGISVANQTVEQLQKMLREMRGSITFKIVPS

[4] = target: T1, DLG3_3, Q92796
[5] = target: FRMPD3, Q5JV73
Sequence of FRMPD3, Q5JV73 (Q5JV73 12-100): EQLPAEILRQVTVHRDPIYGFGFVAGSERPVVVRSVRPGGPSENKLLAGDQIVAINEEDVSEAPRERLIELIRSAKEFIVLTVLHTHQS

[6] = target: T2, MPP7, Q5T2T1
[7] = target: T3, LIN7A, O14910
[8] = target: HTRA2, O43464
Sequence of HTRA2, O43464 (O43464 355-458): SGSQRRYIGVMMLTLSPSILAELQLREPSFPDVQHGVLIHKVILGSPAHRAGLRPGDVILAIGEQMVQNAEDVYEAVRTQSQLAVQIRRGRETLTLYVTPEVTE

[9] = target: LIMK2, P53671
Sequence of LIMK2, P53671 (P53671 143-248): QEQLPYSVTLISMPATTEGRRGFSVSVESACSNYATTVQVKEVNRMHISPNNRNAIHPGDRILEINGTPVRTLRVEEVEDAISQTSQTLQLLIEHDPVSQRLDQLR

[10] = target: MAST1, Q9Y2H9
Sequence of MAST1, Q9Y2H9 (Q9Y2H9 962-1065): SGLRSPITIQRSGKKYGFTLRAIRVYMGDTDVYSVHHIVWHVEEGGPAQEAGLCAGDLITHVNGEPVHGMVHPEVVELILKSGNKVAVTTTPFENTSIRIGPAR

[11] = target: GRIP2_6, Q9C0E4
Sequence of GRIP2_6, Q9C0E4 (Q9C0E4 648-740): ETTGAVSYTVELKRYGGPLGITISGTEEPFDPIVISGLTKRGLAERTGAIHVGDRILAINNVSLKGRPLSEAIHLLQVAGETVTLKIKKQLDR

[12] = target: LNX1_3, Q8TBB1
Sequence of LNX1_3, Q8TBB1 (Q8TBB1 500-596): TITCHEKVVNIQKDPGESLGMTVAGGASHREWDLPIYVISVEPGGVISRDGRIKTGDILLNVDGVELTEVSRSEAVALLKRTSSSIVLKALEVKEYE

[13] = target: GRIP2_4, Q9C0E4
Sequence of GRIP2_4, Q9C0E4 (Q9C0E4 446-548): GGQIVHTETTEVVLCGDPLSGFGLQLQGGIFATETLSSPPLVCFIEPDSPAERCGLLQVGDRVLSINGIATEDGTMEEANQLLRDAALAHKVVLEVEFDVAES

[14] = target: Inadl_9, Q8NI35
Sequence of Inadl_9, Q8NI35 (Q8NI35 1530-1615): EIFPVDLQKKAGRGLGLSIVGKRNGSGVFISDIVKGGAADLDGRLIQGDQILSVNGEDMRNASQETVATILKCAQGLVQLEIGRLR

[15] = target: T4, APBA1_1, Q02410
[16] = target: T5, SNTG1, Q9NSN8
[17] = target: GRIP2_5, Q9C0E4
Sequence of GRIP2_5, Q9C0E4 (Q9C0E4 544-642): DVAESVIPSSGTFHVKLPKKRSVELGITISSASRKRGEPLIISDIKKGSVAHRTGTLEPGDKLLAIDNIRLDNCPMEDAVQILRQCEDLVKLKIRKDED

[18] = target: LNX1_1, Q8TBB1
Sequence of LNX1_1, Q8TBB1 (Q8TBB1 261-371): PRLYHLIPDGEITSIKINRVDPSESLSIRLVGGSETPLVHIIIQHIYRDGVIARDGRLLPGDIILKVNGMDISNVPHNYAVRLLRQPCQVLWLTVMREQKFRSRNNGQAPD

[19] = target: NHERF4_4, Q86UT5
Sequence of NHERF4_4, Q86UT5 (Q86UT5 464-550): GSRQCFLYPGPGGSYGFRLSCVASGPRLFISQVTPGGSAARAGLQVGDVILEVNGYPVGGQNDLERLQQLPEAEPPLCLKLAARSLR

[20] = target: PDZRN4_1, Q6ZMN7
Sequence of PDZRN4_1, Q6ZMN7 (Q6ZMN7 213-318): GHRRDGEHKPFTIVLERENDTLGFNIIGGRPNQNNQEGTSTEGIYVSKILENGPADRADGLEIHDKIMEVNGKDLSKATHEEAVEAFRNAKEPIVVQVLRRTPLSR

[21] = target: DLG1_3, Q12959
Sequence of DLG1_3, Q12959 (Q12959 457-571): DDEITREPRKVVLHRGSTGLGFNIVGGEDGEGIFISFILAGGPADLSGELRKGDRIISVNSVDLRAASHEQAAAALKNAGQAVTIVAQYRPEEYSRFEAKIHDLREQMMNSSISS

[22] = target: IL16_4, Q14005
Sequence of IL16_4, Q14005 (Q14005 1229-1329): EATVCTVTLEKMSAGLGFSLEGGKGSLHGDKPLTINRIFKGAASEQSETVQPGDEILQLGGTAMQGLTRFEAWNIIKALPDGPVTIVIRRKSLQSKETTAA

[23] = target: T6, MPP6, Q9NZW5
[24] = target: LDB3, O75112
Sequence of LDB3, O75112 (O75112 1-94): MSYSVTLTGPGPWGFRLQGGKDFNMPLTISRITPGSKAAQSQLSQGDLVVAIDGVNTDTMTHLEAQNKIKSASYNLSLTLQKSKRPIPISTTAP

[25] = target: FRMPD2_1, Q68DX3
Sequence of FRMPD2_1, Q68DX3 (Q68DX3 770-861): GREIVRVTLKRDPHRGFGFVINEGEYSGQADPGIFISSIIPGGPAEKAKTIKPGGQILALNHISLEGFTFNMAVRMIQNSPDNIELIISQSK

[26] = target: T7, GRIP1_4, Q9Y3R0
[27] = target: MAGI1_1, Q96QZ7
Sequence of MAGI1_1, Q96QZ7 (Q96QZ7 1-106): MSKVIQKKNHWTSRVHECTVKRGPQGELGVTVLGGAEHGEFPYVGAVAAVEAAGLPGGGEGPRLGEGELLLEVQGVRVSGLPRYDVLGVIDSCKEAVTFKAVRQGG

[28] = target: T8, RAPGEF6, Q8TEU7
[29] = target: MAGI1_2, Q96QZ7
Sequence of MAGI1_2, Q96QZ7 (Q96QZ7 456-580): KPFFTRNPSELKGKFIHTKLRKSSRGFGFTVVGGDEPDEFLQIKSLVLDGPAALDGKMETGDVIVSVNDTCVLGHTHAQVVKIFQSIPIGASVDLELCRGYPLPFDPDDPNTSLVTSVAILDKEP

pKd [1]	pKd [2]	pKd [3]	pKd [4]	pKd [5]	pKd [6]	pKd [7]	pKd [8]	pKd [9]	pKd [10]	pKd [11]	pKd [12]	pKd [13]	pKd [14]	pKd [15]	pKd [16]	pKd [17]	pKd [18]	pKd [19]	pKd [20]	Binder	other results
4.4	below the threshold	below the threshold	below the threshold	3.97	below the threshold	below the threshold	below the threshold	below the threshold	3.89	4.06	below the threshold	below the threshold	below the threshold	below the threshold	below the threshold	below the threshold	below the threshold	4.84	below the threshold	FLVTEFNVML [DFNB31, Q9P202]	pKd [21]: below the threshold; pKd [22]: below the threshold; pKd [23]: below the threshold; pKd [24]: 3.88; pKd [25]: below the threshold; pKd [26]: below the threshold; pKd [27]: below the threshold; pKd [28]: below the threshold; pKd [29]: below the threshold
4.49	below the threshold	below the threshold	below the threshold	below the threshold	below the threshold	below the threshold	below the threshold	below the threshold	4.53	below the threshold	below the threshold	below the threshold	below the threshold	below the threshold	below the threshold	below the threshold	3.67	below the threshold	below the threshold	PEKVSNTTVV [IGSF5, Q9NSI5]	pKd [21]: below the threshold; pKd [22]: 3.51; pKd [23]: below the threshold; pKd [24]: below the threshold; pKd [25]: below the threshold; pKd [26]: below the threshold; pKd [27]: below the threshold; pKd [28]: below the threshold; pKd [29]: 3.54
3.53	below the threshold	below the threshold	3.75	below the threshold	below the threshold	below the threshold	below the threshold	below the threshold	3.69	below the threshold	below the threshold	3.68	below the threshold	below the threshold	3.5	below the threshold	below the threshold	4.01	below the threshold	AHGSTRDQSI [KCNB1, Q14721]	pKd [21]: 3.93; pKd [22]: below the threshold; pKd [23]: below the threshold; pKd [24]: below the threshold; pKd [25]: 3.65; pKd [26]: below the threshold; pKd [27]: below the threshold; pKd [28]: 3.91; pKd [29]: below the threshold
